# System: SUMO1-trypsinogen fusion, chloroplast-targeted, extracted from N. benthamiana leaves and refolded
# Sequence (chain, as listed by the source): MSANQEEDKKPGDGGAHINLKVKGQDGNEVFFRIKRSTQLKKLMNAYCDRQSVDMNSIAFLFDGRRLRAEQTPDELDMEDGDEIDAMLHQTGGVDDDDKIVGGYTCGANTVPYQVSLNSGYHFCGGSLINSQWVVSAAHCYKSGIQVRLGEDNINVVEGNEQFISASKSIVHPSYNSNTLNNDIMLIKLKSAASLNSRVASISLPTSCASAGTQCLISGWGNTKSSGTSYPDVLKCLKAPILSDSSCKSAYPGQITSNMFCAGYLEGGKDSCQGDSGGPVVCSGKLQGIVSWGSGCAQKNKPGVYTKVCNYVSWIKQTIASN
substance,measurement,value
"enterokinase (Sigma, cat. no. E0885)",kinetics of BAPNA cleavage (absorption at 405 nm) after enterokinase treatment of the folding reaction,refolded and enterokinase-treated SUMO1-trypsinogen fusion produces active trypsin capable of digesting the substrate BAPNA
